The values that follow are results of earlier work, collected in publication PMC6472351.

Values joined by “and” are separate entries in the source; they are usually repeats but may differ in a detail not shown here. Identical values can stand only once. Like-named read-outs stand apart in the source and are kept apart here.

The target of data set [1] is Histone H3 (Homo sapiens) (UniProt P68431).
Data set [2] shares this target. This is another data set of the same source.

The Kd is the equilibrium constant for the complex coming apart. DIDO PHD (from UniProt Q9BTC0): in data set [1], the dissociation constant (Kd) was 6 µM and 1 µM.

As for GLP ankyrin (from UniProt Q9H9B1), the Kd in data set [2] was 5 µM and 7 µM.
